{
  "source": "paper PMC8561398",
  "about": "“The Histidine Ammonia Lyase of Trypanosoma cruzi Is Involved in Acidocalcisome Alkalinization and Is Essential for Survival under Starvation Conditions” (mBio, 2021)",
  "proteins": {"B1": {"name": "6×His-HAL (rHAL; histidine ammonia lyase) (Trypanosoma cruzi strain CL Brener) (protein)", "chain": "MRVILDGCSLTPDVLYALGYEKGATIEISDEAVARITAARAVIDKIVNDRQTVYGINTGFGKFESTIIPPHQLEELQLNLIRSHSACVGEPLTPERARMMLALRVNVLCKGHSGIRLETVQKYVKAFNAGVVPYIPEQGTVGASGDLGPLSHLALGMLGEGLLATLNNKKFRDAGSVLRELGVEPITLAAKEGLALINGTQFISALGAEAVVRARKIARLADVALAMSHEALRATNSTLNPDIHRVRPHKGQQLVAQRLRALLHSEEYPSMINESHVNCGRVQDAYSIRCAPQVHGISNEVIEWVYGILTTELNCATDNPLVFPDGVKKVVSGGNFHGEYPAKALDMLAIGVHELGNISERRIERLNNPTLSRLPAFLVKNGGLNSGFMIAHCTAAALVSENKVYCHPASADSISTSAAQEDHVSMGGFSARKAIKVVENVERIIAIELLGACQGIDLLRPLRTTEPMEKVWSLVRSVSPPWEEDRVINTDIDNVTKLLRSGAVWKTVKPYVPEEARFLGVLTVKKPFELKSKM", "notes": "four catalytic sites considered; Q4E133 used for alignment; locus tag from YC6"}},
  "substrate": "N[C@@H](Cc1c[nH]cn1)C(=O)O",
  "assay": "purified protein",
  "assay_type": "biochemical, Trypanosoma cruzi",
  "settings": "100 mM Tris-HCl pH 8.8, 0.1 mM MnCl2, 1.7 mM reduced glutathione, 30°C, L-histidine 0.2 to 5 mM, four catalytic sites considered",
  "data": [
    {"protein": "B1", "values": [
      {"measurement": "kcat", "result": "9.027 to 11.7", "unit": "s⁻¹"}
    ]}
  ]
}
